The results in this text go back to article PMC9637102, “Structural basis for the activation of the lipid scramblase TMEM16F” (Nature Communications, 2022).

Series [1] deals with the molecule itself. The series is described as follows: cryo-EM structure; protein in digitonin (20 mM HEPES pH 7.4, 150 mM NaCl, 2 mM EGTA, 0.1% digitonin), 1.5-2 mg/ml; Ca2+-free, or with 2 mM free CaCl2 and 0.01 mM diC8-PI(4,5)P2; homodimer.
Series [2] deals with the molecule itself. The series is described as follows: cryo-EM structure; protein in GDN (0.03% in the SEC buffer), Ca2+-bound; homodimer.

Changes are numbered by the printed parent chain. Names and notes keep the numbering of the source.

B1: murine TMEM16F mutant F518H (natural protein, UniProt Q6P9J9 1-911, looked up)
chain: MQMMTRKVLLNMELEEDDDEDGDIVLENFDQTIVCPTFGSLENQQDFRTPEFEEFNGKPDSLFFTDGQRRIDFILVYEDESKKENNKKGTNEKQKRKRQAYESNLICHGLQLEATRSVSDDKLVFVKVHAPWEVLCTYAEIMHIKLPLKPNDLKTRSPFGNLNWFTKVLRVNESVIKPEQEFFTAPFEKSRMNDFYILDRDSFFNPATRSRIVYFILSRVKYQVMNNVNKFGINRLVSSGIYKAAFPLHDCRFNYESEDISCPSERYLLYREWAHPRSIYKKQPLDLIRKYYGEKIGIYFAWLGYYTQMLLLAAVVGVACFLYGYLDQDNCTWSKEVCDPDIGGQILMCPQCDRLCPFWRLNITCESSKKLCIFDSFGTLIFAVFMGVWVTLFLEFWKRRQAELEYEWDTVELQQEEQARPEYEAQCNHVVINEITQEEERIPFTTCGKCIRVTLCASAVFFWILLIIASVIGIIVYRLSVFIVFSTTLPKNPNGTDPIQKYLTPQMATSITASIISHIIIMILNTIYEKVAIMITNFELPRTQTDYENSLTMKMFLFQFVNYYSSCFYIAFFKGKFVGYPGDPVYLLGKYRSEECDPGGCLLELTTQLTIIMGGKAIWNNIQEVLLPWVMNLIGRYKRVSGSEKITPRWEQDYHLQPMGKLGLFYEYLEMIIQFGFVTLFVASFPLAPLLALVNNILEIRVDAWKLTTQFRRMVPEKAQDIGAWQPIMQGIAILAVVTNAMIIAFTSDMIPRLVYYWSFSIPPYGDHTYYTMDGYINNTLSVFNITDFKNTDKENPYIGLGNYTLCRYRDFRNPPGHPQEYKHNIYYWHVIAAKLAFIIVMEHIIYSVKFFISYAIPDVSKITKSKIKREKYLTQKLLHESHLKDLTKNMGIIAERIGGTVDNSVRPKLE
notes: TMEM16F (anoctamin-6), murine; point mutant F518H; A 3C recognition site stands between TMEM16F and the C-terminal Myc and SBP tags; no cleavage is described; also called F518H^noCa; F518H^Ca; source: TMEM16F KO cells in suspension culture, transient transfection (PEI MAX); purified (Strep-tactin, SEC on Superose 6) in digitonin, or reconstituted into MSP 2N2 nanodiscs (3 POPC:1 POPG)
Consider B1, for which, in series [1], the binding result is “binds”.

B2: murine TMEM16F mutant N562A (natural protein, UniProt Q6P9J9 1-911, looked up)
chain: B1 chain with H518F, N562A
notes: TMEM16F (anoctamin-6), murine; point mutant N562A; A 3C recognition site stands between TMEM16F and the C-terminal Myc and SBP tags; no cleavage is described; also called N562A^Ca; N562A^Cacc; source: TMEM16F KO cells in suspension culture, transient transfection (PEI MAX); purified (Strep-tactin, SEC on Superose 6) in digitonin
For B2, the binding result in series [1] is “binds”.

B3: murine TMEM16F double mutant F518A/Q623A (natural protein, UniProt Q6P9J9 1-911, looked up)
chain: B1 chain with H518A, Q623A
notes: TMEM16F (anoctamin-6), murine; double mutant F518A and Q623A; A 3C recognition site stands between TMEM16F and the C-terminal Myc and SBP tags; no cleavage is described; source: TMEM16F KO cells in suspension culture, transient transfection (PEI MAX); purified (Strep-tactin, SEC on Superose 6) in GDN
As to B3, in series [2], the binding result is recorded as “binds”.
